The chains are these.
B1: BRPF2 bromodomain, wild-type, N-terminal His6-tagged (domain or fragment)
chain: EQVAMELRLTPLTVLLRSVLDQLQDKDPARIFAQPVSLKEVPDYLDHIKHPMDFATMRKRLEAQGYKNLHEFEEDFDLIIDNCMKYNARDTVFYRAAVRLRDQGGVVLRQARREVDSIGLEEASGMHLPERPA
B2: BRPF2 bromodomain I586F mutant (domain or fragment)
chain: B1 chain with I31F

Holding throughout (assay): ITC
Background: In ITC the heat of successive injections is recorded.

In experiment [1] the target is histone H4K8acK12ac (1-15) peptide (UniProt P62805 2-16, acetyl-lysine at K8 and K12).
The target of experiment [2] is histone H4K12ac (1-15) peptide (UniProt P62805 2-16, acetyl-lysine at K12).
For experiment [3], the target named is histone H4K5acK12ac (1-15) peptide (UniProt P62805 2-16, acetyl-lysine at K5 and K12).
The target of experiment [4] is histone H4K5ac (1-15) peptide (UniProt P62805 2-16, acetyl-lysine at K5).
The target of experiment [5] is histone H4K5acK8ac (1-15) peptide (UniProt P62805 2-16, acetyl-lysine at K5 and K8).
For experiment [6], the target named is histone H4K8ac (1-15) peptide (UniProt P62805 2-16, acetyl-lysine at K8).
For experiment [7], the target named is B1.

Data on 4 molecules can be found in paper doi:10.1101/2022.02.20.481182 (bioRxiv, 2022).

Residue numbers refer to the chain shown, from its start. Numbers in names are those of the source. No end group written: not given here.

As usually defined, the Kd is the constant that tells how readily two partners part at equilibrium.

For B1, the Kd stood at 44.7 ± 3.5 µM in experiment [1]; 18.2 ± 1.2 µM in experiment [2]; 3.2 ± 0.1 µM in experiment [3]; 3.5 ± 0.4 µM in experiment [4]; 28.5 ± 1.6 µM in experiment [5]; 6.2 ± 0.6 µM in experiment [6].

Regarding B2, the binding result in experiment [4] was “binds”.

For KSTGGK(Ac)APRKQ (peptide, UniProt P68431 10-20, looked up) [histone H3K14ac (9-19) peptide], the affinity in experiment [7], expressed as Kd, was 10.2 ± 0.2 µM.

Consider GKGGAK(Ac)RHRKV (peptide, UniProt P62805 12-22, looked up) [histone H4K16ac (11-21) peptide], for which, in experiment [7], the Kd was found to be 20.5 ± 1.4 µM. This Kd is about 2-fold higher than that of the molecule before.
